Molecular target: T1, recombinant (His)6-Bwc2 (Cryptococcus neoformans var. neoformans JEC21) (UniProt Q5EGQ1)
T1 sequence: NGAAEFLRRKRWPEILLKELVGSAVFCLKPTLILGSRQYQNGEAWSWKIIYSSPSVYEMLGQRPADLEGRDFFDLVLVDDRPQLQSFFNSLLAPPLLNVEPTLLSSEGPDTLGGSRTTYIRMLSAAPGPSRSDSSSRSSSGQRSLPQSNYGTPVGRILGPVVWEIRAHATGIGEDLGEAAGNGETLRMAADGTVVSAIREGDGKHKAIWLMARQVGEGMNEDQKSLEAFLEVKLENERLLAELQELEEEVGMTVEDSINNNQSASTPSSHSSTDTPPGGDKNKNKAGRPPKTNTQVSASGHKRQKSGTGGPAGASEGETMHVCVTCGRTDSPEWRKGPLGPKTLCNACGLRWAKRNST
Assay: EMSA
Details: 1X EMSA buffer (from 5X: 20% w/v glycerol, 5 mM MgCl2, 250 mM NaCl, 2.5 mM EDTA pH 8, 10 mM DTT, +/-12 uM ZnSO4) + 1X phosphate buffer, 20 ul; 20 min …

With “GTAGTCACCAGTCATTCAGTTACTCTGTTATGACGTGACGTCGTTACTCTCGATCTTCATCTCGATCTCCACCTTGCAAGCTTTTCAGGCTTTTTACTCATCGTTCACTATATAATACGATACCACACTTGACATTTCTTCGGTATGTATAAAACGCAGTCGCGAGTACTTCCTTCTGCTTTTGCAACAAACACGTCTGCATTTGTTGCCAAGTATTTATATCAGCATTAAGTACATGAGGTTC (double strand) [P1 (UVE1 promoter)]” the binding was “binds”.

— paper PMC3764193
